Tested on: peptide library, one residue held at a place counted from the Y acceptor
Assay: relative phosphorylation of the sub-library (ratio to the mean residue at this position); higher = residue favoured
Method in brief: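 Biotinylated Tyr-centred peptide library mixtures, each fixing one residue at one position from −5 to +5, were incubated with purified recombinant kinases in 384-well plates for 90 min with 50 μM ATP plus γ-32P-ATP. Streptavidin membranes captured the peptides, which were rinsed and quantified by phosphorimaging and ImageQuant. At each position, intensities were divided by the sum of the 18 randomized residues (16 for the Ser/Thr-free library) and multiplied by that number. Each value is phosphorylation relative to the mean randomized residue.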

Sequence of TEC, construct: Full length, human (P42680 whole entry, looked up): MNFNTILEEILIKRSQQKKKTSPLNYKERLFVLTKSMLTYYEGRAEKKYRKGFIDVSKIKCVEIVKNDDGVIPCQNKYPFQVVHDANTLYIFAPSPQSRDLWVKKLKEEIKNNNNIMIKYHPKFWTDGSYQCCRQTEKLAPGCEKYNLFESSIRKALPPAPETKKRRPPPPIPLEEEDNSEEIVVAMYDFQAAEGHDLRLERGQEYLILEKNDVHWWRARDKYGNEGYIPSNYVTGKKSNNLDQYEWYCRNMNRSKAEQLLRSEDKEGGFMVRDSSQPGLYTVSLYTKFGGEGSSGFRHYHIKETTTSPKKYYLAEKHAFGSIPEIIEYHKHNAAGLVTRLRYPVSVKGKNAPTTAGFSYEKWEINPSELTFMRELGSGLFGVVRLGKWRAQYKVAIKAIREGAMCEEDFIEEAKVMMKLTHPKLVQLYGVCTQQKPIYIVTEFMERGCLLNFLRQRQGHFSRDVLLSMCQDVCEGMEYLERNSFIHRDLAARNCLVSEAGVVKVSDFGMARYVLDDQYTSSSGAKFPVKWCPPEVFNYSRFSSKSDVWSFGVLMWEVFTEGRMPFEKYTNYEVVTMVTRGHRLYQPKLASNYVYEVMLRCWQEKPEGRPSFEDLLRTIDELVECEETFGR
Sequence of SRMS, construct: aa221-486, human (Q9H3Y6 221-486, looked up): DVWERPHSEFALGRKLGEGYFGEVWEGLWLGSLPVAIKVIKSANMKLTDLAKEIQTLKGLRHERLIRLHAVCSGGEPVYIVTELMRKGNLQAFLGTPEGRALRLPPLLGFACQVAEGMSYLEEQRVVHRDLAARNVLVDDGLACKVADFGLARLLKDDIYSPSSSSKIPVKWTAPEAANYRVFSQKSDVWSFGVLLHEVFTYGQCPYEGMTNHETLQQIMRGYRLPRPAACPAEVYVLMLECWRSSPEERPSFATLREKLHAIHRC

SRMS, construct: aa221-486, human (from UniProt Q9H3Y6)
relative phosphorylation
Conditions	at +1	at +2	at +3	at +4	at +5	at -1	at -2	at -3	at -4	at -5
A fixed	1.61	0.852	0.745	0.969	1.04	0.678	1.08	0.923	1.13	1.02
D fixed	1.27	1.37	0.647	1.09	1.1	0.76	1.3	1.33	1.22	1.14
E fixed	2.77	1.87	0.602	1.41	1.23	0.764	1.61	1.88	1.18	1.07
F fixed	0.567	0.976	1.42	0.922	0.996	1.49	0.718	1.05	1.1	1.01
G fixed	0.832	0.583	0.964	1.15	1.18	0.296	1.01	1.07	1.08	1.18
H fixed	0.66	0.783	0.837	1.11	0.897	1.13	0.924	0.961	0.842	0.87
I fixed	1.26	1.07	2.19	0.812	0.864	2.65	0.963	0.778	0.816	0.921
K fixed	0.273	0.451	0.291	0.736	0.714	0.317	0.605	0.62	0.767	0.91
L fixed	0.788	1.07	1.56	0.795	0.92	1.98	0.921	0.839	1.03	0.919
M fixed	1.12	1.01	1.31	1.13	1.02	1.2	0.837	1.03	0.991	0.995
N fixed	0.539	1.17	0.534	0.818	0.958	0.564	1.08	1.26	0.945	1.08
P fixed	0.16	0.742	1	1.27	1.59	0.546	1.22	0.923	1.23	1.21
Q fixed	1.2	0.857	0.847	1.05	0.891	0.591	1.05	0.819	1.12	1.01
R fixed	0.361	0.635	0.397	0.871	0.768	0.351	0.576	0.671	0.867	0.946
S fixed	1.12	1.07	0.784	0.971	1	0.5	1.12	1.04	0.882	0.971
T fixed	1.12	1.26	1.01	0.923	1	1.26	0.998	1.01	0.754	0.879
V fixed	1.35	1.07	1.6	0.884	0.896	1.83	1.13	0.792	0.849	0.903
W fixed	1.01	1.16	1.27	1.09	0.942	1.1	0.856	0.994	1.2	0.962
pThr fixed	2.26	2.43	0.579	1.07	0.972	1.2	1.19	1.02	0.958	1.03
pTyr fixed	2.12	3.06	1.02	1.47	1.07	1.38	1.44	1.51	1.27	1.21

SYK, construct: Full length, human (from UniProt P43405)
relative phosphorylation
Conditions	at +1	at +2	at +3	at +4	at +5	at -1	at -2	at -3	at -4	at -5
A fixed	0.893	0.772	0.955	0.937	0.988	0.68	0.908	0.734	1.07	0.954
D fixed	1.01	1.13	0.812	1.23	1.14	4.23	2.04	2.29	1.89	1.54
E fixed	4.05	1.74	0.941	1.39	1.2	3.04	2.21	2.61	1.96	1.49
F fixed	0.838	1.27	1.12	1.09	1	0.665	0.675	0.914	1.07	1.02
G fixed	0.363	0.78	1.2	0.965	0.96	0.379	1.04	0.896	0.964	1.03
H fixed	0.665	0.752	0.813	0.988	0.919	0.673	0.863	0.873	0.769	0.933
I fixed	1.22	1.02	1.51	0.751	0.826	1.17	0.766	0.689	0.773	0.949
K fixed	0.25	0.588	0.584	0.875	0.916	0.204	0.46	0.459	0.593	0.681
L fixed	0.86	0.929	1.02	0.802	0.966	0.912	0.837	0.805	0.99	1.04
M fixed	0.907	0.965	0.924	1.1	0.944	0.725	0.728	0.758	0.818	0.944
N fixed	0.505	1.11	0.771	0.896	1.03	1.02	1.21	1.26	0.868	1.13
P fixed	0.288	0.669	1.67	1.08	1.27	0.672	1.03	0.868	1.08	0.966
Q fixed	1.1	0.972	0.761	1.11	0.983	0.674	1.13	0.864	1.11	1.08
R fixed	0.302	0.74	0.619	0.856	0.926	0.219	0.535	0.523	0.641	0.716
S fixed	1.1	1.01	0.892	0.97	0.965	0.587	1.1	0.915	0.758	0.895
T fixed	1.23	1.02	0.907	0.932	1.1	0.779	0.832	0.885	0.651	0.725
V fixed	1.47	0.978	1.4	0.874	0.89	0.935	0.857	0.703	0.811	0.772
W fixed	0.951	1.56	1.1	1.14	0.961	0.44	0.771	0.948	1.19	1.14
pThr fixed	3.24	2.33	0.946	1.54	1.38	6.21	3.86	2.93	2.36	1.85
pTyr fixed	6.41	3.62	1.53	1.73	1.32	4.49	2.56	3.83	2.99	2.2

TEC, construct: Full length, human (from UniProt P42680)
relative phosphorylation
Conditions	at +1	at +2	at +3	at +4	at +5	at -1	at -2	at -3	at -4	at -5
A fixed	1.7	0.954	0.562	0.694	0.847	0.4	1.06	0.921	1.1	0.884
D fixed	0.761	0.712	0.353	0.726	0.87	0.463	1.44	1.42	1.41	1.26
E fixed	2.13	0.838	0.301	0.674	0.934	0.454	1.82	1.65	1.51	1.06
F fixed	0.677	1.07	1.65	1.12	1.11	1.33	0.585	1.32	0.973	0.94
G fixed	0.565	0.515	0.568	0.821	0.921	0.263	1.11	0.917	1.03	1.02
H fixed	0.582	1.04	1.2	1.55	1.24	0.555	1.04	0.944	0.967	1.13
I fixed	1.21	0.776	1.75	0.789	0.637	5.08	0.736	0.746	0.857	0.79
K fixed	0.295	0.932	0.78	1.23	1.23	0.279	0.915	0.682	0.924	1.06
L fixed	0.935	0.918	1.4	0.889	0.838	2.88	0.9	0.814	0.955	0.921
M fixed	1.58	0.86	1.25	0.98	0.956	1.26	0.806	0.932	0.945	1.01
N fixed	0.466	1.2	0.692	0.896	1.01	0.433	1.19	1.25	1.01	1.21
P fixed	0.143	0.67	0.721	0.986	1.07	0.38	1.13	0.962	0.989	0.949
Q fixed	1.33	1.07	0.643	1.05	1.03	0.441	1.22	0.967	1.28	1.2
R fixed	0.413	1.66	1.32	1.61	1.36	0.274	0.882	0.773	0.891	1.15
S fixed	1.22	1.31	0.67	0.871	0.997	0.409	0.942	1.1	0.771	0.919
T fixed	1.05	1.13	0.702	0.817	0.924	0.801	0.856	0.78	0.626	0.754
V fixed	1.57	1.03	1.26	0.785	0.656	1.7	0.782	0.775	0.785	0.887
W fixed	1.38	1.31	2.18	1.51	1.37	0.596	0.589	1.05	0.981	0.856
pThr fixed	1.91	1.66	0.298	0.525	0.563	0.786	1.26	0.929	1.03	0.999
pTyr fixed	1.08	1.3	0.4	0.683	0.779	2.06	0.955	1.08	1.02	0.894

Reference: the supplement of paper PMC11136658
